Source: paper doi:10.1101/2025.05.07.652675
Several values for one entry are separate records, joined by “and”; a condition that tells them apart may be missing. Equal entries are not always repeated.

Target: ZapC^F30D and ZapC^K94D
Assay: BLI

FtsZ (wild type, untagged), sequence (P0A9A6 whole entry): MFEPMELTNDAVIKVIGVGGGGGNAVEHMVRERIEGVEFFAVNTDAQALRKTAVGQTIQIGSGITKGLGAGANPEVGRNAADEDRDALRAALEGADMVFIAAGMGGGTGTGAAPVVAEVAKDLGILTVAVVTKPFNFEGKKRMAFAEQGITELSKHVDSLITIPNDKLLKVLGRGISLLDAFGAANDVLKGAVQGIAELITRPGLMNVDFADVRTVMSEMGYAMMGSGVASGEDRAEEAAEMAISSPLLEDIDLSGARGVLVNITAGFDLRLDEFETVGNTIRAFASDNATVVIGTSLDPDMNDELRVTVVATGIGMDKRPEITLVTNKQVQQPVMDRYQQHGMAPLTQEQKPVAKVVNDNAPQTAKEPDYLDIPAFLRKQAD

FtsZ (wild type, untagged) (from UniProt P0A9A6 1-383) (natural protein)
binding affinity relative to wild-type ZapC (times lower): 5 times and 7 times
